Test results published in article PMC11417369, “DNA sequence and chromatin differentiate sequence-specific transcription factor binding in the human malaria parasite Plasmodium falciparum”.

Target: T1, AP2-LT D1 (Plasmodium falciparum, UniProt Q8IAM1 2520-2577)
T1 sequence: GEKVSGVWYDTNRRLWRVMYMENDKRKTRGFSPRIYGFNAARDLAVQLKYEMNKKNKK
Assay: gcPBM; about 25 ug protein; PBS, 1% milk, 0.2 mg/ml BSA, salmon testes DNA, 0.03% Triton X-100
Conditions: tags: N-terminal GST (pGEX-4T-1), kept; label: surface-attached array probe

| Binder | binding signal |
| --- | --- |
| CACACA_site5230 (dsDNA) DNA 1: ATAATATCATCAAACGCACACATACATAAATATATT DNA 2: AATATATTTATGTATGTGTGCGTTTGATGATATTAT | 9.51 ln median PBM intensity, better of two orientations |
| CACACA_site5591 (dsDNA) DNA 1: ATAATATAAACATACACACACACATATATATATATA DNA 2: TATATATATATATGTGTGTGTGTATGTTTATATTAT | 10.1 ln median PBM intensity, better of two orientations |
| CACACA_site126 (dsDNA) DNA 1: ACGATATTTTTGGTGACACACATATATATATATATA DNA 2: TATATATATATATATGTGTGTCACCAAAAATATCGT | 9.9 ln median PBM intensity, better of two orientations |
| CACACA_site9096 (dsDNA) DNA 1: TCATAAATTAAACACACACACACATCTGGATACCCC DNA 2: GGGGTATCCAGATGTGTGTGTGTGTTTAATTTATGA | 10.1 ln median PBM intensity, better of two orientations |
| CACACA_site8541 (dsDNA) DNA 1: AAGTACATACATAAAACACACACATATATATATATA DNA 2: TATATATATATATGTGTGTGTTTTATGTATGTACTT | 9.93 ln median PBM intensity, better of two orientations |
| CACACA_site7896 (dsDNA) DNA 1: TATACATACATACATACACACACACCGATATATATA DNA 2: TATATATATCGGTGTGTGTGTATGTATGTATGTATA | 9.94 ln median PBM intensity, better of two orientations |
| CACACA_site8822 (dsDNA) DNA 1: ATTATGCACCAACACACACACACACTCCTAAAAAAT DNA 2: ATTTTTTAGGAGTGTGTGTGTGTGTTGGTGCATAAT | 9.97 ln median PBM intensity, better of two orientations |
| CACACA_site1961 (dsDNA) DNA 1: ATTTTTTAACATATCATACACACAACCACTTTTTAT DNA 2: ATAAAAAGTGGTTGTGTGTATGATATGTTAAAAAAT | 9.38 ln median PBM intensity, better of two orientations |
| CACACA_site5583 (dsDNA) DNA 1: ATTAAATACATTAACACACACACAAATAAATACATA DNA 2: TATGTATTTATTTGTGTGTGTGTTAATGTATTTAAT | 9.88 ln median PBM intensity, better of two orientations |
| CACACA_site2539 (dsDNA) DNA 1: TATATATAGAAACACACACACACATATATATATATT DNA 2: AATATATATATATGTGTGTGTGTGTTTCTATATATA | 10.1 ln median PBM intensity, better of two orientations |
| CACACA_site5592 (dsDNA) DNA 1: AATATAAACAAACACACACACATATATATATATATT DNA 2: AATATATATATATATGTGTGTGTGTTTGTTTATATT | 9.96 ln median PBM intensity, better of two orientations |
| CACACA_site6577 (dsDNA) DNA 1: AGCAACCCCCTAGCTACACACATATAGATATAAATA DNA 2: TATTTATATCTATATGTGTGTAGCTAGGGGGTTGCT | 9.99 ln median PBM intensity, better of two orientations |
| CACACA_site3695 (dsDNA) DNA 1: AAGCTTCATTAATATACACACATATATGCGTATATT DNA 2: AATATACGCATATATGTGTGTATATTAATGAAGCTT | 9.46 ln median PBM intensity, better of two orientations |
| CACACA_site8278 (dsDNA) DNA 1: GTAACATACACATATACACACACACCGATATACATA DNA 2: TATGTATATCGGTGTGTGTGTATATGTGTATGTTAC | 10 ln median PBM intensity, better of two orientations |
| CACACA_site7437 (dsDNA) DNA 1: AGATAAAAAAAGTACACACACACATATATTTATATA DNA 2: TATATAAATATATGTGTGTGTGTACTTTTTTTATCT | 9.98 ln median PBM intensity, better of two orientations |
| CACACA_site1192 (dsDNA) DNA 1: AAAAATACCTTATATATACACACTATGTTTTTCTTT DNA 2: AAAGAAAAACATAGTGTGTATATATAAGGTATTTTT | 9.31 ln median PBM intensity, better of two orientations |
| CACACA_site8266 (dsDNA) DNA 1: TATGCATATACACAAGCACACATATATATATATATA DNA 2: TATATATATATATATGTGTGCTTGTGTATATGCATA | 10.1 ln median PBM intensity, better of two orientations |
| CACACA_site2284 (dsDNA) DNA 1: AAAAAAAAAAAAGGCACACAAACATATGTAGACATA DNA 2: TATGTCTACATATGTTTGTGTGCCTTTTTTTTTTTT | 9.56 ln median PBM intensity, better of two orientations |
| CACACA_site452 (dsDNA) DNA 1: CACAAAGACACAAACACACACACACCCACATACATA DNA 2: TATGTATGTGGGTGTGTGTGTGTTTGTGTCTTTGTG | 10 ln median PBM intensity, better of two orientations |
| CACACA_site2254 (dsDNA) DNA 1: TTTTTTTTTATTATCATGCACACATTTTTTTTTTTT DNA 2: AAAAAAAAAAAATGTGTGCATGATAATAAAAAAAAA | 9.48 ln median PBM intensity, better of two orientations |
| CACACA_site656 (dsDNA) DNA 1: ACAATATCTAGATACACACACATATCTCTCAATCTA DNA 2: TAGATTGAGAGATATGTGTGTGTATCTAGATATTGT | 9.5 ln median PBM intensity, better of two orientations |
| CACACA_site2459 (dsDNA) DNA 1: ACCTAAGAACTATTTACACACATATACAAAATATAT DNA 2: ATATATTTTGTATATGTGTGTAAATAGTTCTTAGGT | 9.34 ln median PBM intensity, better of two orientations |

| Binder | binding signal |
| --- | --- |
| CACACA_site4472 (dsDNA) DNA 1: TTTGAATCCTTATATACACACATTATATAATATTAT DNA 2: ATAATATTATATAATGTGTGTATATAAGGATTCAAA | 9.33 ln median PBM intensity, better of two orientations |
| CACACA_site3390 (dsDNA) DNA 1: ACAAAATAAAAACACACACACAAACACAAAAAAATA DNA 2: TATTTTTTTGTGTTTGTGTGTGTGTTTTTATTTTGT | 10.1 ln median PBM intensity, better of two orientations |
| CACACA_site5706 (dsDNA) DNA 1: CTATTTTGGATGTGTACACATATATATATTTATATT DNA 2: AATATAAATATATATATGTGTACACATCCAAAATAG | 9.41 ln median PBM intensity, better of two orientations |
| CACACA_site651 (dsDNA) DNA 1: ATACATATAGGATGCACACATAATTCAAATACAATA DNA 2: TATTGTATTTGAATTATGTGTGCATCCTATATGTAT | 9.54 ln median PBM intensity, better of two orientations |
| CACACA_site8178 (dsDNA) DNA 1: TACATATAAACAATAACACACACCTAGGTACATGGA DNA 2: TCCATGTACCTAGGTGTGTGTTATTGTTTATATGTA | 9.55 ln median PBM intensity, better of two orientations |
| CACACA_site699 (dsDNA) DNA 1: ATTTATATATAATATACACACATATAATCCACATAT DNA 2: ATATGTGGATTATATGTGTGTATATTATATATAAAT | 9.4 ln median PBM intensity, better of two orientations |
| CACACA_site4591 (dsDNA) DNA 1: CACATACAGATATATACACACAAATATATATACTCA DNA 2: TGAGTATATATATTTGTGTGTATATATCTGTATGTG | 9.49 ln median PBM intensity, better of two orientations |
| CACACA_site3391 (dsDNA) DNA 1: AAAAAAAAAAAAAACACACATACACGCCCACCCATA DNA 2: TATGGGTGGGCGTGTATGTGTGTTTTTTTTTTTTTT | 10.1 ln median PBM intensity, better of two orientations |
| CACACA_site960 (dsDNA) DNA 1: TGAATATTTACTTTAGCACACAATTTGTATTTGATT DNA 2: AATCAAATACAAATTGTGTGCTAAAGTAAATATTCA | 9.42 ln median PBM intensity, better of two orientations |
| CACACA_site8242 (dsDNA) DNA 1: AATTTACACGTACGTGTACACACAAAAATATGTTTT DNA 2: AAAACATATTTTTGTGTGTACACGTACGTGTAAATT | 9.37 ln median PBM intensity, better of two orientations |
| CACACA_site6367 (dsDNA) DNA 1: AATATCTTAGTGGATACACACATATAAATGTGTATT DNA 2: AATACACATTTATATGTGTGTATCCACTAAGATATT | 9.32 ln median PBM intensity, better of two orientations |
| CACACA_site4294 (dsDNA) DNA 1: TTTATTAATGGACACACACACACACCCAAAATAAAA DNA 2: TTTTATTTTGGGTGTGTGTGTGTGTCCATTAATAAA | 10.1 ln median PBM intensity, better of two orientations |
| CACACA_site242 (dsDNA) DNA 1: TTTATTAAGAAACACACACACACACCCAAAATAAAA DNA 2: TTTTATTTTGGGTGTGTGTGTGTGTTTCTTAATAAA | 10.1 ln median PBM intensity, better of two orientations |
| CACACA_site5015 (dsDNA) DNA 1: ACCTCATAATATTTAACACACAAAATTATCTGTATG DNA 2: CATACAGATAATTTTGTGTGTTAAATATTATGAGGT | 9.39 ln median PBM intensity, better of two orientations |
| CACACA_site2004 (dsDNA) DNA 1: AAAATGTGCCCACGCGTACACACAAAAAAAGAAAAA DNA 2: TTTTTCTTTTTTTGTGTGTACGCGTGGGCACATTTT | 9.36 ln median PBM intensity, better of two orientations |
| CACACA_site262 (dsDNA) DNA 1: ATTATGTATACATAAACACACATATATATAAAAAAA DNA 2: TTTTTTTATATATATGTGTGTTTATGTATACATAAT | 9.35 ln median PBM intensity, better of two orientations |
| CACACA_site1083 (dsDNA) DNA 1: CTACACAAGCATTAAACACACAAAAGGGATACTTTG DNA 2: CAAAGTATCCCTTTTGTGTGTTTAATGCTTGTGTAG | 9.43 ln median PBM intensity, better of two orientations |
| CACACA_site4429 (dsDNA) DNA 1: TAAACATACAGATACACACACACACCCACAGAGACA DNA 2: TGTCTCTGTGGGTGTGTGTGTGTATCTGTATGTTTA | 10.1 ln median PBM intensity, better of two orientations |
| CACACA_site1139 (dsDNA) DNA 1: TCTGTTAATATTTATACACACATATATATATATATA DNA 2: TATATATATATATATGTGTGTATAAATATTAACAGA | 9.45 ln median PBM intensity, better of two orientations |
| CACACA_site3128 (dsDNA) DNA 1: CCACTAATAAATATTACACACATATATATATATATT DNA 2: AATATATATATATATGTGTGTAATATTTATTAGTGG | 9.47 ln median PBM intensity, better of two orientations |
| CACACA_site3715 (dsDNA) DNA 1: ATATATATATAATAAACACACAAATAGATATAACAT DNA 2: ATGTTATATCTATTTGTGTGTTTATTATATATATAT | 9.52 ln median PBM intensity, better of two orientations |
| CACACA_site2423 (dsDNA) DNA 1: GTGCATAAATCATACACACACACATATATATATATA DNA 2: TATATATATATATGTGTGTGTGTATGATTTATGCAC | 10 ln median PBM intensity, better of two orientations |
